The text below walks through data of the domain aggregation screens of Martell et al. (2025).

Where only a bound is given, the exact number is not on record here.

The nature of this data set: soluble fraction after stress (log2 fold change); higher = more stays soluble; pooled small domains, quantitative proteomics. The following applies: stress: pH 4. In a few lines:
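High-throughput quantitative proteomics was run on pooled custom libraries of small protein domains following pH 4 stress. Fold changes are on a log2 scale; higher values mean more of a domain remained soluble. The fold change in soluble amount is taken as a measure of aggregation propensity.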
“HMIMNDIQAKVLEIAETKDLGSITYYRLSKMLGVDHPYRVKYAIDKLIEKGLLTAKSDGSITKAI”: the “soluble fraction (log2)” value stood at 0.204.

On to “HMIMTTKVSGIMFDKFNPSAILNINGMDYLVRSGDIINGYKILSIGQETVTVQYGANVYKASVG”, for which the “soluble fraction (log2)” value was -0.603. As for “HMIMVAGHLQIKKGKYYMVLELKSESGERKTKWISTGLSAKGNKRKAEAMLEEARENYQSTDA”, the figure is -0.0361. The result for “HMINIFKVKKAMEEIFASEWEDSPYTDQKISQILWSRGFSVSTGLVEKYRGQMGVPDANSRLNLN” reads -1.39.

As for “HMINIGANIRAIRKQKNIKQVDLVRLLQLEGVEITRETLVKIESGVQHIKASQLRGIRDALGTTYDELL”, the “soluble fraction (log2)” value is -0.863. The result for “HMINITALVKQLGGVDISKFNSAFKLLQQGKPLNTISNKVMADTFVALMKNSDEALNTKFRAAFKKI” reads 0.0515; that for “HMINKIANLSAELRMEGLPVSIRSTQAAVKIYMDLGGDDRNLLKTALMSIYVKDRYDIPKFNKVFEKLFA”, 0.0706. As for “HMINKQPKDYEYFLEKWHFTQTEKHQLHNLILKLNIRYPNKDFLKITENLDNGKLVLKKLEERLSKT”, the figure is -0.7; as for “HMINNINKLPETQFIKLFANIFENSQFIAVALYKKKGDGFSDFKDLINKIMDIFENTTKEKKLKILNA”, -0.173; as for “HMINPASEKQLSFANSLIAKKEGGTETLNHYLHNRKVSSLEELDRKDVSEIINALKFAKEVT”, 0.0908. As for “HMINRPVYVPLYTNLDVKDAAEIAEKLEENNIAYKLEDQGETILVNPEQKYKVRLMLAQEGLPKG”, the figure is 0.168. As to “HMINSFDYLQAIFTELMKSQSKMTNQDAAKRLFMQGKVAVSNRDREGLRMVLAQLVTLLPKEELGGLSTVS”, the “soluble fraction (log2)” value is at least 0.43.

As to “HMIPESVQGIEEFLATGALKGIGKKTAAAIVHKFGKDTLRIMEEEPERLAEVSGIGEKKAAAIGEAFALH”, the “soluble fraction (log2)” value was -0.236. As for “HMIPNPMTDRELEVLGLLASGKTYKQVARALDLSQSTVRNHLHNVYHKLNVVDRAQAVIVSRENGW”, the figure is -0.29; as for “HMIPPGTITIEGAITKVPVFLDGKQIGTVPLTKEDVEPGKYRIRVLGVGRVITIDPGEKENVLFSGEDLGL”, -0.401; as for “HMIPTDPNGDLIKILYTSDQINELYARAKLNDVEDLFLDWTKNVLGESNFEETGPTKNEYLIPQ”, -0.961.

As to “HMIPTTELAERLGTTKVANMIMLGALIKASGIISFDDMIKNLGELLGEGKAKLIKLNKEALEVGFN”, the “soluble fraction (log2)” value worked out at 0.0451.

Take “HMIPYSDLLKLLSNDAMPKFRNKDGWAKIHALETYLASRWSYQEYGFASFTVLLETVHNAEIRNDSVRLM”: the “soluble fraction (log2)” value was -0.0131. As to “HMIQTMVVTDLKNGTIFKENGHPFIVLKYEHIKVSRGSAQVRVKMKNLITGQVLEKSWQSTAHVDDT”, the “soluble fraction (log2)” value came to 0.186. Regarding “HMIRMPNLIGLSVRSAEQQLVIAGLKKGIVHQVNDPRLKEVIDMQALGHKITAGSSIPKGTEVDLYIGNGT”, the “soluble fraction (log2)” value turned out to be 0.282.

Consider “HMISAVDLMAARRKIEAGITNLQPGQAFTLPNKVGWVKRMTGGSYFIQGNGGYTASVRTISEAIQAAAMLL”, for which the “soluble fraction (log2)” value is -0.0224. As for “HMISDQENDLNLKHLFDTADQNKDGLILESELKMLMTNLEINKETYDTVMKQITPAGMDYKTFSSL”, the figure is -0.584; as for “HMISFLNFVRKEIDASQLKDSTKQNHLTTIGLLQSFKPSIEFKDLNYNFITSFEKYLYDAGYQM”, 0.105. As for “HMISKQQRQALILDIIQKQSITSQEALLTELQRHHVMTTQTTVSRDIRALGIVRIKDVNGELSYQQLQ”, the figure is -0.0545; as for “HMISKRFQIDEDNSNKRIDIFLTQSLDSISRGIVQQLILENKVEVNGGPVKRNYLIKIGDVIDVKIDL”, -0.608; as for “HMISKTFEINEDNINNRLDIFLANQFDNLSRGIVQKLIESHSVSVSGNFVEKDYKLKLGDIIDVEINLS”, -0.853. The result for “HMISLNEDQKLAILNEWNQRPDDPPFIKELIELVFPDIPEEAKTGRSRYGIAIKKFLAEKSLQAKV” reads -0.554; that for “HMISLPSYIREEATEVYNRLHDLGLEYTSLDVNDDSIPKGYVVRTVPEAGASVPAGQVVTVYVSLG”, -0.231; that for “HMISQLRGKVLGTDRDALVIDVGGVGFRVSATAGARALAGQSGNEARLFTEMVVREDSIDLFGF”, -0.245. With “HMISRKIKELRLSHDLTQKDLADYLNLTPKMVSFYELGQRVPPSDIILKLAEKFHVSTDYLLGNEDRP”, the “soluble fraction (log2)” value is -0.126.

As to “HMITDNEFLRIVSFLKQRYGIDMSQKKVIMNGRLENYLKSGGWSSFDEYMNDVEKDTSGDLEKTLVNFLTT”, the “soluble fraction (log2)” value is -0.853. As for “HMITETIGANIKTLRDKFRMSQQDLASKMNTARPVISNWENGKTEPSSSQLLKLAKIFDTSTDKILGNV”, the figure is 0.345; as for “HMITKEDVANKKVNLLFFGNFHKMKLPDFEWGITEMMQDRDYLYGSLTKDLYFLGLVLDRKYKI”, 0.124; as for “HMITKENYLEKIKEIKVNEFPASMRELYDFFNEATRNGTDWSAYEEGNVKYVVDAYLERLNLLYKSN”, -0.892. The result for “HMITLYIHNLEEVGKRLDHYLVSNLDDHSRSQIQSWIRSGSILVNDRSVKTGYSLELNDQILINPPK” reads -0.15; that for “HMITNSTEIEAMIDSLIKENPEQAEQYRNGNTKVVGWFVGQMMKASKGKANPQVVGDLLAQKLVG”, -0.821. Take “HMIVAHEINRHLGESDQPVEIPDNRREGAVAELLKTFNNDDAFREMDDGKYEVALDGEKVREAARSLLA”: the “soluble fraction (log2)” value was -0.0196.

For “HMIVDARNREINLGSHVRYVDTGTVGEVTDSKVENDASWVKIDKTNLWYLANKLELLNDEDFKT”, the “soluble fraction (log2)” value was -0.517. The result for “HMIVDINDVRIDKYIADNTDYSRNLILNLIKNGDILVNDSKIKPSYKVKQGDKITINNVKTD” reads -0.284; that for “HMIVKQPDIRKQELLDIGVRLYFEAGEKGVSIQQVVKQAGVATGLFYYYFSSKDAFLDEALNDYID”, -0.0638. As for “HMIVLPGEELEVHIVQEGKEDGQGVAYLDDGTMVVVEGGRPYVDSFAYVAVTRVLQTGAGRIIFAHPTR”, the figure is -0.108. The result for “HMIYNSGTTDSRGEAIVGGYLVTVTDTDTKDPVANAAVTLHKDNSISIRLPNSRLLDYADQTTVTVQLV” reads -0.00411; that for “HMKAEKEIEKIKFTIYNEFKRKQEENHFLPPWDGTKMLRQFVLGVVANNPKYQHVNTDILYRDLLLLYYQ”, -0.166; that for “HMKAFTKKELQDLVLNIFRASPTTNYNYKQLYKLIRGKDPEIKTLIIAVLLGLEKNGSILQMRPGKYKFS”, -0.268. As to “HMKALDTVLSEIPGLGPVRIKQLLKVFGSVDAIRKASLQDLQQIEGIGPKLAQTIYEYFHQP”, the “soluble fraction (log2)” value was -0.328. The result for “HMKALYNLDYEKPLSGSYYTETTARAAVPTDIRKLGLIITYKTDATTNITEQFVGSSISAWTTSGNWKSLG” reads 0.105; that for “HMKAPPLTDREKEILRWVAAGLQNKEIAHKLGISLATVRNHIHNILEKLDVHSKLEAVSLAFRQGWVS”, -0.133; that for “HMKASEMKKGQTIKIDGVLYVIVDFQHVKLSKGGAVYQTKLRNLAAGGIRDIRIRAEEVLEDA”, -0.515. As for “HMKDITPASEDQLKAITDLMLKVNGEWSDAFFTFISKKFNHQISSPEQLTTFEANTIIDMLRKKAEG”, the figure is 0.22; as for “HMKDLDSLSQEAKSVYAVFSDKPIHIDDIKRKTGLDFSKLFKAVTELELAELISSGEGKMYSL”, -0.858; as for “HMKDLTIRQQQFLNYIKDHLSLTGFPPTRSDIANEMGFKSPNAAEDHLRALARKGAIEIVPGTSRGIRLP”, 0.0783. As for “HMKDMKISTKNLLQELAKNYPDQTSFRKNVIETTARAMGYTGKDFYPLLTTDNRVKIGTYDLATFLRSI”, the figure is -0.122; as for “HMKDNPNETFERIAGKITRTLRSGPVRIQQLDLLFSESAGKVVDVLRAMAENGEVLIKDDTIQLNGNN”, -0.261. Take “HMKDTFHNLSEEKRERIIRAALGEFAASGYEKATLDGVVQAAGISKGGLYEYISSKEDLFRYLLEYSYD”: the “soluble fraction (log2)” value was -1.43. Regarding “HMKDTNENLMKMLALLIHAAKIDENYSDEEKELIVNFAEMSSKENLNREQILSIIKSAEEYE”, the “soluble fraction (log2)” value was -0.673.

Take “HMKEADVRKNEILDAAGILFSEKGYDNTSVTDIMNAVGFAKGTLYHHFKSKEDIMDALIKRQTD”: the “soluble fraction (log2)” value is -0.61.

As for “HMKEAISIYPNPVKDILTIRGMDETSGVSFKLYDVTGNLLLESTHSELDMSGLNRGVYFLDIAGDVRKVVK”, the “soluble fraction (log2)” value was -1.07.

On to “HMKEEDLPREYTDILGNSVHERLNIMIHDIIEHSQDKPEVAMSPEREEAMHGLRRWMFDHVYH”, for which the “soluble fraction (log2)” value is -0.307. Take “HMKEEVEILGGKATIYTNDYGVWQFRLWLTTDNKYVRKSLRTKVKDYAITEGEKLYIQIRSDIEKGIKYY”: the “soluble fraction (log2)” value was -0.077. The result for “HMKEEVSVPDIKGMTYEEAEAKLAKYDLEIEKGETVKASEQYEEGQISSQEPEAGSKVKEGSTIVVDVVE” reads -0.174.

In the case of “HMKEFSFNGGKVIMNYEADRIQIKHDSRPNQEVITLMKRNGFKWSPTNQAWQRQITGNAIYVTKNLLKS”, the “soluble fraction (log2)” value was -0.0347. For “HMKEGGGYGQLRLKEAAIQHAFDLQNALQFIAERGYQAHENTTLKEAANALNLKPIELLELLKSSQ”, the “soluble fraction (log2)” value is -0.574. Take “HMKEIDVPNVVGASENAARKLLESYGFQVEVQWENGERVDNAVVKSYSPNGSAKSGSTVTIVLGT”: the “soluble fraction (log2)” value is -0.293. The result for “HMKEINFTIEESAKGRLDKVIAENVADLTRSQVQSLIKKGQILVNDAPTTNRYQVKPNDQVIIKLPDPV” reads 0.0442; that for “HMKEKLGEFENVFLSVDELQKLKSKLGAETESYIERLSNYIASSGKKYKSHYATILSWTQKDTK”, -0.644; that for “HMKELASKYEISEYMKFLIENLDKSNFFYPIEKRESMINNIFSIYSKADLSKKELNMLWGMLKKLR”, -1.06. As for “HMKELTELIEKIKLRRLELGLSYQELSDLTGINKSTLQRYETGFIKKVPINQVQIIAKALNVTPGYLMG”, the figure is -0.718; as for “HMKEMTAKQIDMFSDKLSKLESFQSHYIADAGVSVTEYKQAIAAKLQDQFYVEAWGKYLADVGFT”, -1.13. The result for “HMKEPIYQTILSALILELNTNHFRKNDPFYSESELRKKYQVSSTTVVRVLNMLADQGYIYRIQGKGSFVSK” reads -0.5.
